Measurements taken from US20180194839A1 (Novartis, published 2018).
Where a chain is given by its changes, count along the chain named. Names and notes keep the numbering of the source.

Key:
[1] = molecular target: T1, recombinant human IL-13 (Novartis) (human, UniProt P35225 35-146, limits assumed); assay: ELISA, coated cytokine;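 further: antibodies incubated 3 h at room temperature on cytokine-coated plates, binding read out with alkaline phosphatase-conjugated anti-species IgG secondary antibodies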
T1 construct: also called huIL-13
T1 sequence (P35225 35-146 limits assumed): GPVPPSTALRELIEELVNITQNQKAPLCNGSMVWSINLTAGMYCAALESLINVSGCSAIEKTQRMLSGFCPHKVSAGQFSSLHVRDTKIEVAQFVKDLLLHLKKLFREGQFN

[2] = molecular target: T2, recombinant mouse IL-1β (R&D Systems Cat#401-ML) (mouse, UniProt P10749 118-269); assay: ELISA, coated cytokine;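 further: antibodies incubated 3 h at room temperature on cytokine-coated plates, binding read out with alkaline phosphatase-conjugated anti-species IgG secondary antibodies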
T2 construct: also called mIL-1β
T2 sequence (looked up): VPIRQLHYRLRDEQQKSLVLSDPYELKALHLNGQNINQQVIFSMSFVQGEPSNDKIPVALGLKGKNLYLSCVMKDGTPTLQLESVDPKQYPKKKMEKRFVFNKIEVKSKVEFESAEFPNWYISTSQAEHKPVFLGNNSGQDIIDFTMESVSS

[3] = molecular target: T3, recombinant mouse TNFα (R&D Systems Cat#410-MT) (mouse, UniProt P06804 80-235); assay: ELISA, coated cytokine;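 further: antibodies incubated 3 h at room temperature on cytokine-coated plates, binding read out with alkaline phosphatase-conjugated anti-species IgG secondary antibodies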
T3 construct: coated at 0.5 µg/ml; also called mTNFα
T3 sequence (looked up): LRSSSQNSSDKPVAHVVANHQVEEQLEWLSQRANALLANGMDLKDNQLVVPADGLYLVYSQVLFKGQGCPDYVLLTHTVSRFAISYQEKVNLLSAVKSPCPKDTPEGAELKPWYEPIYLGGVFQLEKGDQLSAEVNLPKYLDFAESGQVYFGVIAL

[4] = molecular target: T4, recombinant rat TNFα (R&D Systems Cat#510-RT/CF) (rat, UniProt P16599 80-235); assay: ELISA, coated cytokine;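 further: antibodies incubated 3 h at room temperature on cytokine-coated plates, binding read out with alkaline phosphatase-conjugated anti-species IgG secondary antibodies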
T4 sequence (looked up): T3 sequence (looked up) with V22A, V58I, N91S, V96I, I117M, Q130L, F143I, A144T

[5] = molecular target: T5, recombinant human TGFβ2 (Novartis) (human, UniProt P61812 303-414); assay: ELISA, coated cytokine
T5 construct: also called huTGFβ2
T5 sequence (looked up): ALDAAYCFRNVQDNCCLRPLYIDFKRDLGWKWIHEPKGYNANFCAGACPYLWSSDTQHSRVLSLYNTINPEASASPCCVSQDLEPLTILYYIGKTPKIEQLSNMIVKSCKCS

[6] = molecular target: T6, recombinant human IFNγ (Roche) (human, UniProt P01579 24-166, limits assumed); assay: ELISA, coated cytokine
T6 construct: also called huIFNγ
T6 sequence (looked up): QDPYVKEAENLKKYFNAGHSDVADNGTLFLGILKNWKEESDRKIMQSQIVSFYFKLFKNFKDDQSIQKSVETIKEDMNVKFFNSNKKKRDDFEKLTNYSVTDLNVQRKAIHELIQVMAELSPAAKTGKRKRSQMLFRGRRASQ

[7] = molecular target: T7, recombinant human IL-17E (R&D Systems Cat#1258-IL/CF) (human, UniProt Q9H293 33-177); assay: ELISA, coated antigen
T7 construct: also called huIL-17E; hu IL-17E
T7 sequence (looked up): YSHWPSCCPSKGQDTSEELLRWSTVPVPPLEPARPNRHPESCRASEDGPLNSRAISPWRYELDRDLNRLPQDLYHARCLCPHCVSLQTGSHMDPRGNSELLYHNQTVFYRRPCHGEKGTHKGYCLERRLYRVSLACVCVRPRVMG

[8] = molecular target: T8, recombinant mouse IL-17F (SEQ ID NO: 84) (mouse, UniProt Q7TNI7 29-161); assay: ELISA, coated antigen
T8 construct: also called mIL-17F; rmIL-17F
T8 sequence: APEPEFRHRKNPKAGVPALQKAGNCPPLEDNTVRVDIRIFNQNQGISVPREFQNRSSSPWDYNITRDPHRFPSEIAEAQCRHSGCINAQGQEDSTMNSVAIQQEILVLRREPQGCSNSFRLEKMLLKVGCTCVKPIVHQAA

[9] = molecular target: T9, recombinant human IL-17C (R&D Systems Cat#1234IL/CF) (human, UniProt Q9P0M4 19-197); assay: ELISA, coated antigen
T9 construct: also called huIL-17C; hu IL-17C
T9 sequence (looked up): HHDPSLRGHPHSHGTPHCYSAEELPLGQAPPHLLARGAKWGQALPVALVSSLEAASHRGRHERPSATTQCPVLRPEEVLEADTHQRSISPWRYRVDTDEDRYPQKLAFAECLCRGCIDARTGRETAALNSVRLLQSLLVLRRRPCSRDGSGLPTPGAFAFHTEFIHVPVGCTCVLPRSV

[10] = molecular target: T10, recombinant human IL-17B (R&D Systems) (human, UniProt Q9UHF5 21-180); assay: ELISA, coated antigen
T10 construct: also called huIL-17B; hu IL-17B
T10 sequence (looked up): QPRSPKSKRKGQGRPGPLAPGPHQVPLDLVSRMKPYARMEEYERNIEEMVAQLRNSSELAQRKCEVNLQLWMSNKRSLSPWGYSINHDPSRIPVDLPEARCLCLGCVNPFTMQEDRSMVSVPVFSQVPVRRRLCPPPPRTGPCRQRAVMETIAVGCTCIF

[11] = molecular target: T11, recombinant human IL-17D (R&D Systems Cat#1504IL/CF) (human, UniProt Q8TAD2 18-202, limits assumed); assay: ELISA, coated antigen
T11 construct: also called huIL-17D; hu IL-17D
T11 sequence (looked up): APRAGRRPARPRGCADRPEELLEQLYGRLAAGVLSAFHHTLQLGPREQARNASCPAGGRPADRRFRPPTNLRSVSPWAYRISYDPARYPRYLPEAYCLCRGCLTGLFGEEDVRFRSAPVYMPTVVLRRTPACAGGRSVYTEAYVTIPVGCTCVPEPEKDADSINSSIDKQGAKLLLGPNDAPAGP

[12] = molecular target: T12, recombinant rat IL-6 (R&D Systems Cat#506-RL-010) (rat, UniProt P20607 25-211); assay: ELISA, coated cytokine, Ab 10 µg/ml
T12 sequence (looked up): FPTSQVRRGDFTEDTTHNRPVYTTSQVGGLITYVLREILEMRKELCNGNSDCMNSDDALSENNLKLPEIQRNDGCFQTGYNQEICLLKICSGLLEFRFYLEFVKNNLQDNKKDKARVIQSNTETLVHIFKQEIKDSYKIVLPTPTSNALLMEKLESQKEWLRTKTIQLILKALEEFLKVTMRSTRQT

[13] = molecular target: T4, recombinant rat TNFα (R&D Systems …); assay: ELISA, coated cytokine, Ab 10 µg/ml
[14] = molecular target: recombinant rat IL-23 (R&D Systems Cat#3136-RL-010/CF) (rat); assay: ELISA, coated cytokine, Ab 10 µg/ml

B1: XAB4 (antibody, human IgG1, kappa, V domains shown)
VH: EVQLVESGGDLVQPGGSLRLSCAASGFTFSSYWMSWVRQAPGKGLEWVANIKQDGSEKYYVDSVKGRFTISRDNAKNSLYLQMNSLRAEDTAVYYCARDRGSLYYWGQGTLVTVSS
VL: AIQLTQSPSSLSASVGDRVTITCRPSQGINWELAWYQQKPGKAPKLLIYDASSLEQGVPSRFSGSGSGTDFTLTISSLQPEDFATYYCQQFNSYPLTFGGGTKVEIKR
notes: also called MB435 N56Q
Q: Does B1 bind [1]?
A: no binding (tested: 10 µg/ml)

Q: Does B1 bind [2]?
A: no binding (tested: 10 µg/ml)

Q: Does B1 bind [3]?
A: no binding (tested: 10 µg/ml)

Q: Does B1 bind [4]?
A: no binding (tested: 10 µg/ml)

Q: Does B1 bind [5]?
A: no binding (tested: 10 µg/ml)

Q: Does B1 bind [6]?
A: no binding (tested: 10 µg/ml)

Q: Does B1 bind [7]?
A: no binding (tested: 1 µg/ml)

Q: Does B1 bind [8]?
A: no binding (tested: 1 µg/ml)

Q: Does B1 bind [9]?
A: no binding (tested: 1 µg/ml)

Q: Does B1 bind [10]?
A: no binding (tested: 1 µg/ml)

Q: Does B1 bind [11]?
A: no binding (tested: 1 µg/ml)

Q: What about the O.D. [12] of the same binder?
A: 0.021 O.D.

Q: And the O.D. [13]?
A: 0.02 O.D.

Q: And the O.D. [14]?
A: 0.023 O.D.

B2: XAB1 (antibody, human IgG1, kappa, V domains shown)
VH: B1 VH
VL: B1 VL with N30I, W31S, E32A, Q56N
notes: human IgG1/kappa monoclonal antibody; also called parental XAB1; XAB1 IgG
Q: Which results are given for B2?
A: binding result [1]: no binding (tested: 10 µg/ml); binding result [2]: no binding (tested: 10 µg/ml); binding result [3]: no binding (tested: 10 µg/ml); binding result [4]: no binding (tested: 10 µg/ml); binding result [5]: no binding (tested: 10 µg/ml); binding result [6]: no binding (tested: 10 µg/ml); binding result [7]: no binding (tested: 1 µg/ml); binding result [8]: no binding (tested: 1 µg/ml); binding result [9]: no binding (tested: 1 µg/ml); binding result [10]: no binding (tested: 1 µg/ml); binding result [11]: no binding (tested: 1 µg/ml); O.D. [12]: 0 O.D.; O.D. [13]: 0.003 O.D.; O.D. [14]: 0.011 O.D.
